In paper PMC11775580:

Legend:
[1] = biological target: pSer2 CTD peptide (RNA polymerase II CTD, about two heptads, phosphorylated at Ser2); test: fluorescence polarisation
[2] = biological target: pSer7 CTD peptide (RNA polymerase II CTD, about two heptads, phosphorylated at Ser7); test: fluorescence polarisation

Kd [1] [µM]	Kd [2] [µM]	Binder
22.5	32.5	RPRD1B CID domain (residues 2-133), wild type (domain or fragment) SSFSESALEKKLSELSNSQQSVQTLSLWLIHHRKHAGPIVSVWHRELRKAKSNRKLTFLYLANDVIQNSKRKGPEFTREFESVLVDAFSHVAREADEGCKKPLERLLNIWQERSVYGGEFIQQLKLSMEDSK
37.8	–	RPRD1B CID domain (residues 2-133), Tyr61 to alanine (domain or fragment) SSFSESALEKKLSELSNSQQSVQTLSLWLIHHRKHAGPIVSVWHRELRKAKSNRKLTFLALANDVIQNSKRKGPEFTREFESVLVDAFSHVAREADEGCKKPLERLLNIWQERSVYGGEFIQQLKLSMEDSK
37.9	–	RPRD1B CID domain (residues 2-133), Arg114A mutant (domain or fragment) SSFSESALEKKLSELSNSQQSVQTLSLWLIHHRKHAGPIVSVWHRELRKAKSNRKLTFLYLANDVIQNSKRKGPEFTREFESVLVDAFSHVAREADEGCKKPLERLLNIWQEASVYGGEFIQQLKLSMEDSK
